In US20110263454A1, “Methods of Identifying Functional Characteristics of Promoters, Transcription Modifying Proteins and Transcription Modulating Agents” (Salk Institute for Biological Studies, priority 2008, published 2011):

B1: GCNF: Germ Cell Nuclear Factor (NR6A1, GCNF1), cDNA driver (protein, UniProt Q15406 1-480, looked up)
Nuclear receptor subfamily 6 …: MERDEPPPSGGGGGGGSAGFLEPPAALPPPPRNGFCQDELAELDPGTISVSDDRAEQRTCLICGDRATGLHYGIISCEGCKGFFKRSICNKRVYRCSRDKNCVMSRKQRNRCQYCRLLKCLQMGMNRKAIREDGMPGGRNKSIGPVQISEEEIERIMSGQEFEEEANHWSNHGDSDHSSPGNRASESNQPSPGSTLSSSRSVELNGFMAFREQYMGMSVPPHYQYIPHLFSYSGHSPLLPQQARSLDPQSYSLIHQLLSAEDLEPLGTPMLIEDGYAVTQAELFALLCRLADELLFRQIAWIKKLPFFCELSIKDYTCLLSSTWQELILLSSLTVYSKQIFGELADVTAKYSPSDEELHRFSDEGMEVIERLIYLYHKFHQLKVSNEEYACMKAINFLNQDIRGLTSASQLEQLNKRYWYICQDFTEYKYTHQPNRFPDLMMCLPEIRYIAGKMVNVPLEQLPLLFKVVLHSCKTSVGKE
B2: NR4a2: NR4a2 (NR4A2; NURR1), nuclear hormone receptor cDNA driver (protein, UniProt P43354 1-598, looked up)
Nuclear receptor subfamily 4 …: MPCVQAQYGSSPQGASPASQSYSYHSSGEYSSDFLTPEFVKFSMDLTNTEITATTSLPSFSTFMDNYSTGYDVKPPCLYQMPLSGQQSSIKVEDIQMHNYQQHSHLPPQSEEMMPHSGSVYYKPSSPPTPTTPGFQVQHSPMWDDPGSLHNFHQNYVATTHMIEQRKTPVSRLSLFSFKQSPPGTPVSSCQMRFDGPLHVPMNPEPAGSHHVVDGQTFAVPNPIRKPASMGFPGLQIGHASQLLDTQVPSPPSRGSPSNEGLCAVCGDNAACQHYGVRTCEGCKGFFKRTVQKNAKYVCLANKNCPVDKRRRNRCQYCRFQKCLAVGMVKEVVRTDSLKGRRGRLPSKPKSPQEPSPPSPPVSLISALVRAHVDSNPAMTSLDYSRFQANPDYQMSGDDTQHIQQFYDLLTGSMEIIRGWAEKIPGFADLPKADQDLLFESAFLELFVLRLAYRSNPVEGKLIFCNGVVLHRLQCVRGFGEWIDSIVEFSSNLQNMNIDISAFSCIAALAMVTERHGLKEPKRVEELQNKIVNCLKDHVTFNNGGLNRPNYLSKLLGKLPELRTLCTQGLQRIFYLKLEDLVPPPAIIDKLFLDTLPF
B3: NR4a3: NR4a3 (NR4A3; NOR1), nuclear hormone receptor cDNA driver (protein, UniProt Q92570 1-626, looked up)
Nuclear receptor subfamily 4 …: MPCVQAQYSPSPPGSSYAAQTYSSEYTTEIMNPDYTKLTMDLGSTEITATATTSLPSISTFVEGYSSNYELKPSCVYQMQRPLIKVEEGRAPSYHHHHHHHHHHHHHHQQQHQQPSIPPASSPEDEVLPSTSMYFKQSPPSTPTTPAFPPQAGALWDEALPSAPGCIAPGPLLDPPMKAVPTVAGARFPLFHFKPSPPHPPAPSPAGGHHLGYDPTAAAALSLPLGAAAAAGSQAAALESHPYGLPLAKRAAPLAFPPLGLTPSPTASSLLGESPSLPSPPSRSSSSGEGTCAVCGDNAACQHYGVRTCEGCKGFFKRTVQKNAKYVCLANKNCPVDKRRRNRCQYCRFQKCLSVGMVKEVVRTDSLKGRRGRLPSKPKSPLQQEPSQPSPPSPPICMMNALVRALTDSTPRDLDYSRYCPTDQAAAGTDAEHVQQFYNLLTASIDVSRSWAEKIPGFTDLPKEDQTLLIESAFLELFVLRLSIRSNTAEDKFVFCNGLVLHRLQCLRGFGEWLDSIKDFSLNLQSLNLDIQALACLSALSMITERHGLKEPKRVEELCNKITSSLKDHQSKGQALEPTESKVLGALVELRKICTLGLQRIFYLKLEDLVSPPSIIDKLFLDTLPF
B4: SHP: Small Heterodimer Partner (NR0B2), cDNA driver (protein, UniProt Q15466 1-257, looked up)
Nuclear receptor subfamily 0 …: MSTSQPGACPCQGAASRPAILYALLSSSLKAVPRPRSRCLCRQHRPVQLCAPHRTCREALDVLAKTVAFLRNLPSFWQLPPQDQRRLLQGCWGPLFLLGLAQDAVTFEVAEAPVPSILKKILLEEPSSSGGSGQLPDRPQPSLAAVQWLQCCLESFWSLELSPKEYACLKGTILFNPDVPGLQAASHIGHLQQEAHWVLCEVLEPWCPAAQGRLTRVLLTASTLKSIPTSLLGDLFFRPIIGDVDIAGLLGDMLLLR
B5: DAX-1: DAX1 (NR0B1), cDNA driver (protein, UniProt P51843 1-470, looked up)
Nuclear receptor subfamily 0 …: MAGENHQWQGSILYNMLMSAKQTRAAPEAPETRLVDQCWGCSCGDEPGVGREGLLGGRNVALLYRCCFCGKDHPRQGSILYSMLTSAKQTYAAPKAPEATLGPCWGCSCGSDPGVGRAGLPGGRPVALLYRCCFCGEDHPRQGSILYSLLTSSKQTHVAPAAPEARPGGAWWDRSYFAQRPGGKEALPGGRATALLYRCCFCGEDHPQQGSTLYCVPTSTNQAQAAPEERPRAPWWDTSSGALRPVALKSPQVVCEAASAGLLKTLRFVKYLPCFQVLPLDQQLVLVRNCWASLLMLELAQDRLQFETVEVSEPSMLQKILTTRRRETGGNEPLPVPTLQHHLAPPAEARKVPSASQVQAIKCFLSKCWSLNISTKEYAYLKGTVLFNPDVPGLQCVKYIQGLQWGTQQILSEHTRMTHQGPHDRFIELNSTLFLLRFINANVIAELFFRPIIGTVSMDDMMLEMLCTKI

How the values were obtained:
mGhrelin promoter = test: NHR-promoter luciferase screen, mGhrelin promoter; format: cell-based, mouse; conditions: for Luc. act., normalized to lacZ / Normalized Luc. act., normalized to control: Table 8, mGhrelin; for Results of assays of transcription factor (+/- ligand) with mGhrelin: Table 6d, luciferase activity relative to control (control = 1.00)
Method in brief: (§1)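 CV-1 cells were co-transfected with 50 ng NHR (homodimer or NHR/RXR heterodimer), 100 ng promoter-luciferase construct and 50 ng LacZ. Luciferase was normalized to LacZ and to a no-NHR/no-ligand control.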

mLeptin promoter = test: NHR-promoter luciferase screen, mLeptin promoter; format: cell-based, mouse; conditions: for Luc. act., normalized to lacZ / Normalized Luc. act., normalized to control: Table 7, mLeptin; for Results of assays of transcription factor (+/- ligand) with mLeptin: Table 6d, luciferase activity relative to control (control = 1.00)
Method in brief: as §1

mPOMC promoter = test: NHR-promoter luciferase screen, mPOMC promoter; format: cell-based, mouse; conditions: for Results of assays of transcription factor (+/- ligand) with mPOMC: Table 6d, luciferase activity relative to control (control = 1.00); for Luc. act., normalized to lacZ / Normalized Luc. act., normalized to control: mPOMC promoter, HR component with or without ligand; for Normalized Luc. act., normalized to control: relative to control
Method in brief: as §1

mUCP3 promoter = test: NHR-promoter luciferase screen, mUCP3 promoter; format: cell-based, mouse; conditions: for Normalized Luc. act., normalized to control / Luc. act., normalized to lacZ: mUCP3 promoter reporter; for Normalized Luc. act., normalized to control: HR without or with its ligand, relative to control; for Luc. act., normalized to lacZ: hormone receptor (HR) without or with its ligand; for mUCP3 promoter reporter activity: transcription factor +/- ligand, control = 1.00
Method in brief: as §1

hIRF7 promoter = test: NHR-promoter luciferase screen, hIRF7 promoter; format: cell-based, human; conditions: for Normalized Luc. act., normalized to control / Luc. act., normalized to lacZ: IRF7 promoter reporter; for Normalized Luc. act., normalized to control: HR without or with its ligand, relative to control; for Luc. act., normalized to lacZ: hormone receptor (HR) without or with its ligand; for hIRF7 promoter reporter activity: transcription factor +/- ligand, control = 1.00
Method in brief: as §1

hPPARg1 promoter = test: NHR-promoter luciferase screen, hPPARg1 promoter; format: cell-based, human; conditions: for Luc. act., normalized to lacZ / Normalized Luc. act., normalized to control: PPARG1 promoter, hormone receptor with or without its ligand; for Normalized Luc. act., normalized to control: relative to control; for Results of assays of transcription factor (+/- ligand) with hPPARg1: Table 6d, luciferase activity relative to control (control = 1.00)
Method in brief: as §1

Molecule	Luc. act., normalized to lacZ (mGhrelin promoter)	Normalized Luc. act., normalized to control (mGhrelin promoter)	Results of assays of transcription factor (+/- ligand) with mGhrelin (mGhrelin promoter)	Luc. act., normalized to lacZ (mLeptin promoter)	Normalized Luc. act., normalized to control (mLeptin promoter)	Results of assays of transcription factor (+/- ligand) with mLeptin (mLeptin promoter)	Results of assays of transcription factor (+/- ligand) with mPOMC (mPOMC promoter)	Luc. act., normalized to lacZ (mPOMC promoter)	Normalized Luc. act., normalized to control (mPOMC promoter)	Normalized Luc. act., normalized to control (mUCP3 promoter)	Luc. act., normalized to lacZ (mUCP3 promoter)	mUCP3 promoter reporter activity (mUCP3 promoter)	Normalized Luc. act., normalized to control (hIRF7 promoter)	Luc. act., normalized to lacZ (hIRF7 promoter)	hIRF7 promoter reporter activity (hIRF7 promoter)	Luc. act., normalized to lacZ (hPPARg1 promoter)	Normalized Luc. act., normalized to control (hPPARg1 promoter)	Results of assays of transcription factor (+/- ligand) with hPPARg1 (hPPARg1 promoter)
B1	50.7	1.0	0.97	1.5	0.5	0.50	0.61	42.0	0.6	1.0	0.66	0.98	1.1	28.4	1.08	88.6	1.3	1.29
B2	31.5	0.6	0.60	2.1	0.7	0.71	1.05	72.2	1.0	1.0	0.68	1.01	0.9	23.2	0.88	58.8	0.9	0.85
B3	29.4	0.6	0.56	1.8	0.6	0.62	0.87	59.7	0.9	1.2	0.81	1.19	0.9	24.9	0.95	61.0	0.9	0.88
B4	56.5	1.1	1.08	2.7	0.9	0.91	0.95	65.6	1.0	1.1	0.77	1.15	1.1	29.1	1.10	67.9	1.0	0.99
B5	63.3	1.2	1.21	2.5	0.9	0.87	0.92	63.4	0.9	1.3	0.89	1.31	1.1	27.9	1.06	67.5	1.0	0.98
